Test [1] deals with Extra Domain B of fibronectin (EDB) (UniProt P02751). In words: SPR (BIACORE), EDB immobilized on the chip, construct as analyte. On the technique in general: SPR reads the build-up and loss of mass on a sensor chip optically.
For test [2] the target is unchanged. In words: BIACORE SPR, EDB immobilized on the chip, analyte at 1.56, 3.125 and 6.25 nM.

For orientation: Kd means the constant that tells how readily two partners part at equilibrium. A low value points to higher affinity. Usually koff stands for a measure of how fast the partners let go of each other. A low value points to a long-lived complex. What is called kon is the second-order rate constant of association. Low values mean slower complex formation, high ones faster complex formation.

Chain of Extra Domain B of fibronectin (EDB) (P02751 1266-1356 limits assumed): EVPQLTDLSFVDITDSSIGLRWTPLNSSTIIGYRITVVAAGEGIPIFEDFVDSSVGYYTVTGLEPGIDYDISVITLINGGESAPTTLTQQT
Chain of L19 diabody-IL2 fusion protein, 12 amino acid linker (VH): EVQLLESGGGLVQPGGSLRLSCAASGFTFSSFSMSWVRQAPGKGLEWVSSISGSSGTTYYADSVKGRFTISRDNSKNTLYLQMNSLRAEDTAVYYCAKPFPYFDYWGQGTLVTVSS
Chain of L19 diabody-IL2 fusion protein, 12 amino acid linker (chain): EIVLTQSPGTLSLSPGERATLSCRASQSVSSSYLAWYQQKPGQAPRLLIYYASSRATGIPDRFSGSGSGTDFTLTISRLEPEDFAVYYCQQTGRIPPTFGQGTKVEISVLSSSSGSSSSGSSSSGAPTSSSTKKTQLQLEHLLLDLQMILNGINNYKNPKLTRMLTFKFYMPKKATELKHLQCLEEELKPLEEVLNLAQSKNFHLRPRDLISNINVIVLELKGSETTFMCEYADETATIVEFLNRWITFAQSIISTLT

In test [1], “L19 diabody-IL2 fusion protein, 12 amino acid linker” displayed a Kd of 0.36 nM. In test [2], this substance showed a Kd of 0.362 nM, a koff of 0.000769 s⁻¹ and a kon of 2.13e+06 M⁻¹ s⁻¹.

(Values after patent US20110064751A1.)
